From patent US11789012B2, “Cell death biomarker” (UCL Business PLC, priority 2016, dated 2023) come the findings set out here.

Assay [1] deals with H2804. Put plainly: rTRAIL response, viability assay, H2804. It counts as cell-based, Human. Conditions: BAP1 Essential Splice, heterozygous. The procedure:
(§1) Manual “single dose” combination screening was undertaken using 96 well formats. Cells were plated on day 1 in previously optimized seeding densities in 180 μl if media. On day 2 20 μl of a 10× concentration of […] was added. Cells were then allowed to grow for 72 hrs or 6 days and fixed at the end of the assay. Drug wells were compared to DMSO treated control wells.
(§2) Single agent high throughput 5 point viability screening was undertaken in 384 well formats using robotic liquid handling with fixing with 4% paraformaldehyde and staining for viability with Syto60 nucleic acid dye (Invitrogen) (see below). Single agent dose response curves were derived for each library of 85-95 drugs according to the experiment used, and log IC50 or area under the curve (AUC) metrics were derived for each library compound in each cell line according to a previously derived formula [18].
(§3) Adherent cell lines were seeded 24 hours before drugging. Cells were trypsinised and counted before seeding at the optimal density for the size of well (96 or 384) and duration of assay. 72 hr after drug treatment cells were fixed with 4% paraformaldehyde for 30 minutes. […] Quantification of fluorescent signal was achieved using excitation/emission wavelength of 630/695 […].

Assay [2] has as its system H2795. The assay can be described thus: rTRAIL response, viability assay, H2795. It counts as cell-based, Human. Conditions: BAP1 Essential Splice, heterozygous. The method, then:
as §1, §2, §3

Assay [3] has as its system H2722. The assay can be described thus: rTRAIL response, viability assay, H2722. Conditions: BAP1 HomDel, homozygous. It counts as cell-based, Human. The procedure: as §1, §2, §3
Assay [4] has as its system NCI-H226. Put plainly: Annexin V/DAPI cell death assay, H226 parental and BAP1-transduced lines. The format is cell-based, Human. The procedure:
FIG. 5A is an immunoblot for BAP1 protein in BAP1 null mesothelioma lines following transfection with empty vector and BAP1 expression vector. […] FIG. 5C is a graph showing the effect of rTRAIL on cell viability of an untransduced H226 cell line, a BAP1 (transduced) cell line, and a H226 cell line with the NLS deleted.
Untransduced BAP1-negative H226 cells, BAP1-expressing and catalytically dead BAP1-expressing H226 cells were treated with 100 ng/ml of FASL, TRAIL and TNF-alpha for 24 hours and cell death was quantified by Annexin V/DAPI assay. *p<0.05 indicating significant difference between untransduced H226 cells H226 BAP1 expressing cells. NS no significant difference between untransduced H226 cells and BAP1 C91A transduced cells. #p<0.05 indicating significant difference between untransduced H226 cells and BAP1 C91A transduced cells.
(§4) Adherent mesothelioma cell lines were plated in a 96 well plate at approximately 10000 cells per well. Cells were plated and given 1 day to adhere at which time drug was added. After 48 hrs media, including floating cells, was collected from each well. The remaining adherent cells were washed with PBS and mobilised with 0.05% trypsin in EDTA. All cells were collected into tubes containing the previously removed media and pelleted by centrifugation (300 g, 5 minutes). Cells were then re-suspended in 1× Annexin V binding buffer with 10 μl/1 ml concentration of Annexin V-647 antibody (Invitrogen) and incubated for 15 minutes at room temperature. DAPI (41 g/ml) was then added to each sample before flow cytometry analysis as below. Annexin V−/DAPI− cells were judged to be viable, AnnexinV+/DAPI− cells were considered to be undergoing apoptosis (early apoptotic phase), and Annexin V+/DAPI+ cells were considered late apoptotic or necrotic, and recorded as dead.

Assay [5] deals with H2591. The assay can be described thus: rTRAIL response, viability assay, H2591. Conditions: BAP1 Wild-type. The format is cell-based, Human. The method, then:
as §1, §2, §3

The test system of assay [6] is BAP1 mutant cell lines (H2722, H2461, H28 and H2731). Put plainly: Annexin V/DAPI cell death assay, BAP1 mutant cell lines. The format is cell-based, Human. Conditions: TRAIL 0-1000 ng/ml, 24 hours. The method, then:
MPM cell lines were treated with a dose range from 0.5 ng/ml to 100 ng/ml and cell viability was measured using Syto-60 assay. Based on their cell viability, the cell lines were classified into resistant (red), partially sensitive (orange) and sensitive (green). Cell lines were western blotted to probe the expression of BAP1 protein expression. […] Three BAP1 wild-type cell lines (MPP-89, H2869 & H2818) and four BAP1 mutant cell lines (H2722, H2461, H28 and H2731) were treated with TRAIL (0-1000 ng/ml) for 24 hours and cell death quantified using an Annexin V/DAPI cell death assay.
as §4, with “Cells were then re-suspended in 1× Annexin V binding buffer with 10 μl/1 ml concentration of Annexin V-647 antibody (Invitrogen) and incubated for 15 minutes at room temperature. DAPI (41 g/ml) was then added to each sample before flow cytometry analysis as below.” left out

Assay [7] relates to H2818. The assay can be described thus: Cell death response to rTRAIL after BAP1 shRNA knockdown in H2818. The format is cell-based, Human. Conditions: H2818 BAP1 wild-type line. The procedure: as §4
Lentivirus encoding shRNA targeting BAP1 was generated as per the lentivirus production protocol above. MPM cells (H2818) were transduced and treated with puromycin […] until a pure population was achieved. Immunoblotting was performed to assess efficacy of the shRNA knockdown.

The test system of assay [8] is NCI-H2052. Put plainly: rTRAIL response, viability assay, NCI-H2052. Conditions: BAP1 Wild-type. The format is cell-based, Human. The method, then: as §1, §2, §3
Assay [9] relates to HCC1187. Put plainly: rTRAIL viability, breast cancer cell line HCC1187. It counts as cell-based. Conditions: nonsense mutation in BAP1. An excerpt:
(§5) FIG. 8A is a graph showing the effect of rTRAIL on the viability of various cancer cell lines. Bladder (RT4) and Breast (HCC1187) cancer cell lines with nonsense mutations in BAP1 show sensitivity to rTRAIL while renal cell cancer cell lines (769P & RCC10RGB) with missense mutation and wild-type renal (BB65RCC) and bladder cancer (SW1710) cell lines are resistant to TRAIL.

The test system of assay [10] is BB65RCC. The assay can be described thus: rTRAIL viability, renal cell line BB65RCC. The format is cell-based. Conditions: BAP1 wild-type.
Description: as §5

B1: rTRAIL: recombinant protein that activates the TRAIL pathway by binding to TRAIL-R1 (DR 4) and TRAIL-R2 (DR 5) (protein, UniProt P50591 1-281, looked up)
Tumor necrosis factor ligand …: MAMMEVQGGPSLGQTCVLIVIFTVLLQSLCVAVTYVYFTNELKQMQDKYSKSGIACFLKEDDSYWDPNDEESMNSPCWQVKWQLRQLVRKMILRTSEETISTVQEKQQNISPLVRERGPQRVAAHITGTRGRSNTLSSPNSKNEKALGRKINSWESSRSGHSFLSNLHLRNGELVIHEKGFYYIYSQTYFRFQEEIKENTKNDKQMVQYIYKYTSYPDPILLMKSARNSCWSKDAEYGLYSIYQGGIFELKENDRIFVSVTNEHLIDMDHEASFFGAFLVG
B1: the rTRAIL response result is on record as “Sensitive” in assay [1]; “Sensitive*” in assay [2]; “Resistant” in [3]; “Resistant” in assay [5]; “Resistant” in assay [8]. In addition, the “sensitivity of H226 cells to cell death-inducing ligand, dependence on BAP1 catalytic domain” value in assay [4] (100 ng/ml, 24 hours, untransduced, BAP1-expressing and catalytically dead BAP1-expressing H226) was “regulates the sensitivity”. The “cell death relative to BAP1 null line” value in [4] (BAP1 expressing H226 cell line, dose range of TRAIL) was “significantly reduced”. In assay [4] (BAP1 null NCI-H226, dose range of TRAIL), the cell death result is listed as “increased cell death”. The “fraction of cells stained with Annexin V” value in assay [6] is listed as “increased fraction of cells stained with the apoptotic marker Annexin V”. In addition, in [7], the “TRAIL sensitivity after ablation of BAP1 with lentiviral shRNA vs parental line” value is “shift towards increased sensitivity”. Also, the “response to rTRAIL (viability)” value in assay [9] was “sensitivity”. In addition, the “response to TRAIL (viability)” value in [10] is “resistant”.
